Experimental findings from article PMC8580882 are described below.

In this experiment the target is Cyclosorus parasiticus chalcone synthase 1 (CpCHS1) (Cyclosorus parasiticus). Kind of experiment: crystal structure; sitting-drop vapor diffusion at 20°C; 0.2 M sodium chloride, 0.1 M Tris-HCl pH 8.0, 20% w/v PEG 4000; apo form at 1.9 Å, complexes with naringenin and with naringenin + CoA at 2.4 Å; molecular replacement with 6DXB.

As to “Cyclosorus parasiticus chalcone synthase 1 (CpCHS1) (enzyme)”, the stoichiometry N stood at 2.
